Series [1] addresses Chlamydomonas reinhardtii ATG3, wild type (Chlamydomonas reinhardtii). The series can be described thus: non-reducing SDS-PAGE; purified ATG3 (about 2.5-3 ug) in 50 mM Tris-HCl pH 7.5, 25 °C, untreated or treated with DTTred, GSH, DTTox, H2O2 or Cu2+; stopped with βME-free loading buffer, 5 min at 65 °C; 12% or 15% gels, Coomassie; monomer against disulfide-linked dimer.
Series [2] concerns the molecule itself. The description is as above.

The term stoichiometry N denotes the number of molecules, sites or subunits per partner or assembly. Consider “Chlamydomonas reinhardtii ATG3, wild type (enzyme)”, for which the stoichiometry N in series [1] is 2.

B1: Saccharomyces cerevisiae ATG3, wild type (enzyme, UniProt P40344 1-310, looked up)
chain: MIRSTLSSWREYLTPITHKSTFLTTGQITPEEFVQAGDYLCHMFPTWKWNEESSDISYRDFLPKNKQFLIIRKVPCDKRAEQCVEVEGPDVIMKGFAEDGDEDDVLEYIGSETEHVQSTPAGGTKDSSIDDIDELIQDMEIKEEDENDDTEEFNAKGGLAKDMAQERYYDLYIAYSTSYRVPKMYIVGFNSNGSPLSPEQMFEDISADYRTKTATIEKLPFYKNSVLSVSIHPCKHANVMKILLDKVRVVRQRRRKELQEEQELDGVGDWEDLQDDIDDSLRVDQYLIVFLKFITSVTPSIQHDYTMEGW
notes: ATG3 (E2-like enzyme of the ATG8 conjugation system), Saccharomyces cerevisiae; catalytic Cys234; also called ScATG3; ScATG3^WT
In the case of B1, the “stoichiometry N” value in series [2] was 2.

Values taken from PMC10756753, “Redox-mediated activation of ATG3 promotes ATG8 lipidation and autophagy progression in Chlamydomonas reinhardtii” (Plant Physiology, 2023).
